For 1 substance, fold increase in affinity against the wild-type peptide results are on record in article doi:10.1101/2022.06.08.495335.

The target in this assay is clathrin N-terminal domain (NTD) (UniProt Q00610). The assay is described as follows: fluorescence polarisation + ITC.
Chain of UniProt Q00610 (Q00610 1-364): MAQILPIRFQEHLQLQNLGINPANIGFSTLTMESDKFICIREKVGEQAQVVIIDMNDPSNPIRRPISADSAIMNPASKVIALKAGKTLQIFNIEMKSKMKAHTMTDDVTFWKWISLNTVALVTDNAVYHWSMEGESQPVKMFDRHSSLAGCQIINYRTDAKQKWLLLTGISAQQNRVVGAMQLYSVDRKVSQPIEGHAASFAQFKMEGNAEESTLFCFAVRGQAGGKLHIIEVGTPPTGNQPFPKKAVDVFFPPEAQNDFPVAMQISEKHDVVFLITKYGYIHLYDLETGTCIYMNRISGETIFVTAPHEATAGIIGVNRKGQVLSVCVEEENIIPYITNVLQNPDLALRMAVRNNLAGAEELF

As to “HURP_(832-846) phosphorylated peptide (pS839) (from UniProt Q15398 832-846)”, the fold increase in affinity against the wild-type peptide was 20 fold.
